Molecular target: poly-SUMO2 chains (3–8) (UniProt P61956)
Experiment: SPR

UniProt P61956, sequence (P61956 whole entry): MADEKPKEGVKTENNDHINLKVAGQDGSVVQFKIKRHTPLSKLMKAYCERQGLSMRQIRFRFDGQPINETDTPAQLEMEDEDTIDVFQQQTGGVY

B1: RNF111(282–411) fragment, wild type (domain or fragment)
chain: SENHQNNPAVPSGSIDEDVVVIEASSTPQVTANEEINVTSTDSEVEIVTVGESYRSRSTLGHSRSHWSQGSSSHASRPQEPRNRSRISTVIQPLRQNAAEVVDLTVDEDEPTVVPTTSARMESQATSASI
  Kd: 15 µM

From publication PMC3678163
